This is an account of results in patent publication US20210284734A1.

This assay deals with cyno PD1. Kind of assay: flow cytometry, PD-1-transfected CHO-S cells; mAb 10 ug/ml, then R-PE PD-L1-Fc as blocked ligand.
Chain of cyno PD1 (receptor, as listed by the source limits assumed): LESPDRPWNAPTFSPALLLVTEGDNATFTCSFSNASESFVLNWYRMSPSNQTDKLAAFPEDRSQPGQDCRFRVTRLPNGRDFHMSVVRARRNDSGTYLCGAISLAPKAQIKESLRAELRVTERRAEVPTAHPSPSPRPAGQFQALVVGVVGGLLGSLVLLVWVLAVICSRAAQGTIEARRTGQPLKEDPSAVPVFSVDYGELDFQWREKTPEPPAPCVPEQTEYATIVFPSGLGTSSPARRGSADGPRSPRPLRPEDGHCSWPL

Chain of pembrolizumab analogue (antibody) (VH): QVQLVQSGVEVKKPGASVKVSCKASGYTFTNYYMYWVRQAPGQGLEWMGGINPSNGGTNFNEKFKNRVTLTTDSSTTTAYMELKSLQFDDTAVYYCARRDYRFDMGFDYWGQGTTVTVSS
Chain of pembrolizumab analogue (antibody) (VL): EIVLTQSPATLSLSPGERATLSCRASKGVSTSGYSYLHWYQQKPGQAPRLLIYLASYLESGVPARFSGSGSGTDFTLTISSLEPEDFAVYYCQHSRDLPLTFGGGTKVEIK

Take pembrolizumab analogue (antibody): the % of all cells in Q2 of panel PD-L1 binding (PD-L1+, CFSE+ cyno PD1 cells) was 0.38%; the % of all cells in Q3 of panel PD-L1 binding (PD-L1-, CFSE+ cyno PD1 cells) worked out at 52.5%; the % of cyno PD1-gated cells in Q1 (mAb+, PD-L1-) came to 44.7%; the % of cyno PD1-gated cells in Q2 (mAb+, PD-L1+) came out at 3.84%. Also, the % of cyno PD1-gated cells in Q3 (mAb-, PD-L1+) turned out to be 0.92% and the % of cyno PD1-gated cells in Q4 (mAb-, PD-L1-) was 50.6%.
